Assay results: patent US20230295635, “DNA APTAMERS FOR EOSINOPHIL PEROXIDASE DETECTION” (McMaster University, published 2023)

B1: EAP1-20 (ssDNA)
DNA: ATGCCATCCTACCAACAGCAGCGGGCGGGGGCCAGTGGGGGATGTAGCCGGGGGTGGAGCTCTGAACTGG
B2: EAP2-18 (ssDNA)
DNA: ATGCCATCCTACCAACATGGGGATATCCGGCGGGGGCATCAGGGGGGAGTGCGGGTGAGCTCTGAACTGG
B3: EAP2-40 (ssDNA)
DNA: ATGCCATCCTACCAACCAGGGGGCGCGGGAGGGGGCCTGACGTCGAGGGGGTTGGGGAGCTCTGAACTGG
B4: EAP1-08 (ssDNA)
DNA: ATGCCATCCTACCAACCAGTTGCCGGTGGGGTGACCCGGTGGGGGAGGGTGTGGGGGAGCTCTGAACTGG
B5: EAP2-09 (ssDNA)
DNA: ATGCCATCCTACCAACACGACCGGTGTAGAGGGGGGTATACGGAATGGGGGTTGTGGAGCTCTGAACTGG
B6: EAP1-05T3BT (ssDNA)
DNA: TTTTTTTTTTATGCCATCCTACCAACCAGGGGGACAGTGCAAAGGGAGCTCTGAACTCG
B7: EAP2-10 (ssDNA)
DNA: ATGCCATCCTACCAACAGGGAGGGGGCGGTTAGGGAATGGTGGTCCGGGCGGGGTAGAGCTCTGAACTGG
B8: EAP2-01 (ssDNA)
DNA: ATGCCATCCTACCAACCGCGGGAGGAGACTGGTGTAGGGGGCATGGGATGGCCTGGGAGCTCTGAACTGG
B9: EAP1-01 (ssDNA)
DNA: ATGCCATCCTACCAACCACGGGGATCGGGTGGGGGCTAGGCGGCGTGTGCACGGGGGAGCTCTGAACTGG
B10: EAP1-05 (ssDNA)
DNA: ATGCCATCCTACCAACCAGGGGGACAGTGCAAAGGGGTAGGGAGGGGGCTAGGGGGGAGCTCTGAACTGG
B11: EAP1-15 (ssDNA)
DNA: ATGCCATCCTACCAACCGGGGGAGCAAGGTGTAGGGGTAGGGGGCCATGCGAGGGGGAGCTCTGAACTGG

Experiments:
[1] = target: T1, Eosinophil peroxidase (EPX) (UniProt P11678;P11678 P11678:140-250,P11678:251-715); experiment: EMSA; 3 nM aptamer, 5 nM EPX; small positive impact of middle deletion; details: tags: Cedarlane #342-60-0.1; untagged commercial protein; label: 5'-FAM
T1 sequence (P11678 140-250, chain 1 of 2): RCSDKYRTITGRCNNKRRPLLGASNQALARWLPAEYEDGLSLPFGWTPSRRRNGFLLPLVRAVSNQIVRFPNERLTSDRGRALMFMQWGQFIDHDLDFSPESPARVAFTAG
T1 sequence (P11678 251-715, chain 2 of 2): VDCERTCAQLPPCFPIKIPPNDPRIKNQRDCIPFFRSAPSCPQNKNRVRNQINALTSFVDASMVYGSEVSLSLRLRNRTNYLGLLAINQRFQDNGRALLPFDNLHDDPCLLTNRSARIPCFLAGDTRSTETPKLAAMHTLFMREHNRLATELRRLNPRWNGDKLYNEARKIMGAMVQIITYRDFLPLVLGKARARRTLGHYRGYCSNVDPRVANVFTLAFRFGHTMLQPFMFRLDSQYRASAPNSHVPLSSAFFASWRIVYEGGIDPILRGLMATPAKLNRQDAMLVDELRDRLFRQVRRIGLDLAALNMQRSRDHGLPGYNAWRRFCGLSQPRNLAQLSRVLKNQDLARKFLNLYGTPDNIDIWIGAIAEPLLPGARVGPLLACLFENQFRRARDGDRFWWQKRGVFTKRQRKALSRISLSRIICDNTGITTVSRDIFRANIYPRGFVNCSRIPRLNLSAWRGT
Description: Next, EAP1-05 was subjected to truncation and deletion experiments to shorten the aptamer and improve its binding ability. The aptamer was truncated by removing various DNA segments (FIG. 2A), and the fraction of aptamer bound to EPX was assessed by EMSA using 3 nM of aptamer and a single EPX concentration of 5 nM and calculating the decrease in free aptamer fluorescence in EMSA gels.

[2] = target: T1, Eosinophil peroxidase (EPX); experiment: EMSA; value only in figure; weaker than EAP1-05; 1x SB pH 9; details: tags: Cedarlane #342-60-0.1; untagged commercial protein; label: fluorescent (FAM)
Lactoperoxidase (LPO) = Lactoperoxidase (LPO) (UniProt P80025 P80025:101-712); experiment: pulldown; HB, 1 uM protein; no TMB signal
Myeloperoxidase (MPO) = Myeloperoxidase (MPO) (UniProt P05164;P05164 P05164:165-273,P05164:279-745); experiment: pulldown; HB, 1 uM protein; no TMB signal; details: tags: Cedarlane #426-10-0.1; untagged commercial protein; chain copies: 2; label: 5'-biotin
Myeloperoxidase (MPO), sequence (P05164 165-273, chain 1 of 2): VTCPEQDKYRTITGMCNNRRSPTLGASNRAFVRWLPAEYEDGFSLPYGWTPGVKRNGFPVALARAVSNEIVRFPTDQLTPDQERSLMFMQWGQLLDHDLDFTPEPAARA
Myeloperoxidase (MPO), sequence (P05164 279-745, chain 2 of 2): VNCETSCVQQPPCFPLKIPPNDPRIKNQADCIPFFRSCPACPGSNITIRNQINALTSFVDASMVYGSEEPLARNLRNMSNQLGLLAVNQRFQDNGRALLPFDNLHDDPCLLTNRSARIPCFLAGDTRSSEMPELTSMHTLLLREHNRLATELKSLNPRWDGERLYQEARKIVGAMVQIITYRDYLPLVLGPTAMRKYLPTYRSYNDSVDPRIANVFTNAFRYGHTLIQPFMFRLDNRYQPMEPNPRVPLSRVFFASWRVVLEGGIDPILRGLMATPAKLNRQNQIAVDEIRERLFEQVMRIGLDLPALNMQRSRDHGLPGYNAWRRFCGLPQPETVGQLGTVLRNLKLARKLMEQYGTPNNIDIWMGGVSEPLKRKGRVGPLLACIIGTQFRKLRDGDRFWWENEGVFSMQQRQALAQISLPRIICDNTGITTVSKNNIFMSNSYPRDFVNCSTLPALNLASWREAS

[3] = target: Bovine serum albumin (BSA) (Bos taurus, UniProt P02769 P02769:25-607); experiment: pulldown; HB; no TMB signal (BSA has no peroxidase activity); details: label: 5'-biotin
Bovine serum albumin (BSA), sequence (P02769 25-607, one chain of several): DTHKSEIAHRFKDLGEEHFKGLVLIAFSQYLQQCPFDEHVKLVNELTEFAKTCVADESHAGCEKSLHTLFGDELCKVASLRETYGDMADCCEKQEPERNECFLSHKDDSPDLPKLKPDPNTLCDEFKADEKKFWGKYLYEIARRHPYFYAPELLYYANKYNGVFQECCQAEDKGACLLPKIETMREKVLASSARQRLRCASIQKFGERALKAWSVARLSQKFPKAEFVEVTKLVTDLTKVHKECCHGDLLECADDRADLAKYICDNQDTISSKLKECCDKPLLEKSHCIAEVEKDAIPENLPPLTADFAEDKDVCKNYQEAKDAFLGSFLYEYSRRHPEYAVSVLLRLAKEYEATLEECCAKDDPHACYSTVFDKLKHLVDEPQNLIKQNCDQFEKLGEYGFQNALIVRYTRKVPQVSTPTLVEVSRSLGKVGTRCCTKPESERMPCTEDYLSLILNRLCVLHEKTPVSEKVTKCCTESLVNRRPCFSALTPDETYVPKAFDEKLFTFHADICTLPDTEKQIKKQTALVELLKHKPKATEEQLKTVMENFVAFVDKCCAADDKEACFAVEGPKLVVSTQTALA
Description: (§1) EPX pulldown assay: Biotinylated EAP1-05T3 was immobilized on streptavidin-coated agarose beads as follows: 200 µL of streptavidin-coated agarose slurry was transferred into a 1.5 mL Eppendorf tube and washed with 500 µL of 1x HB (50 mM HEPES, 300 mM NaCl, 15 mM MgCl2, 0.01% Tween20, pH 7.5). 1 nmole of biotinylated EAP1-05T3 was added to this slurry and rotated gently for 1 h to bind the aptamers with the beads. The beads were washed 5x with 500 µL of 1x HB each time and finally suspended in 1000 µL of 1x HB and stored at 4° C. until use. 50 µL of this bead slurry was used for each pull-down experiment.
Specificity test: 50 µL of aptamer-conjugated beads from above were aliquoted in each tube and labelled for each experiment: Buffer, EPX, MPO, LPO, TPO and BSA respectively. 1 µM stock of each of protein was made in 1x HB. Next, 1.0 µL of each protein was added to their respected tube and incubated at room temperature for 30 minutes with occasional pipetting for homogeneous binding. Only buffer was added in the control experiment tube that was labelled as buffer. Then the beads were sedimented by brief centrifugation using a benchtop centrifuge and washed 3× using 300 µL 1x HB. Next, the beads were resuspended in 25 µL HB. […] This yellow solution was immediately transferred into 96 well plate and the OD was measured at 450 nm using Tecan plate reader. […]

[4] = target: T1, Eosinophil peroxidase (EPX); experiment: pulldown; HB (50 mM HEPES, 300 mM NaCl, 15 mM MgCl2, pH 7.5), TMB signal; LoD 1 nM in buffer, 1.25 nM in sputum; details: tags: Cedarlane #342-60-0.1; untagged commercial protein; label: 5'-biotin
Description: as §1
Sensitivity test in buffer: EPX stocks of different concentrations (10.0, 5.0, 2.5, 1.25, 0.625, 0.312, 0.156, 0.078, 0.039 and 0.019 µM) were made in 1x HB. Similar to specificity test, 50 µL of aptamer conjugated beads slurry was transferred in each fresh Eppendorf tube (3 tubes for each concentration for triplicate experiments). 1.0 µL of each protein was added to their respected tube and incubated at room temperature for 30 minutes with occasional pipetting for homogeneous binding. Only buffer was added in the control experiment tube that was labelled as buffer. […] This yellow solution was immediately transferred into 96 well plate and the OD was measured at 450 nm using a Tecan plate reader. […]

[5] = target: T1, Eosinophil peroxidase (EPX); experiment: FP; PBS pH 7.4, room temperature; details: tags: Cedarlane #342-60-0.1, untagged commercial protein, label: 5'-FAM
[6] = target: T1, Eosinophil peroxidase (EPX); experiment: FP; 0.5x SB, room temperature; details: tags: Cedarlane #342-60-0.1; untagged commercial protein; label: 5'-FAM; 3' stem loop
[7] = target: T1, Eosinophil peroxidase (EPX); experiment: EMSA; 1x SB (50 mM Tris, 1 M NaCl, 5 mM MgCl2, 2 mM KCl, pH 9), poly(dI-dC); from loss of free aptamer band; details: tags: Cedarlane #342-60-0.1; untagged commercial protein; label: 5'-FAM; 3' stem loop

Binder | binding result [2] | other results
ATGCCATCCTACCAATAGGGAGGGGGCTAGGGGGGAGCTCTGAACTCG (ssDNA) [EAP1-05T2] |  | binding result [1]: binds
B1 | binds | 
B2 | binds | 
B3 | binds | 
B4 | binds | 
B5 | binds | 
B6 |  | binding result (Lactoperoxidase (LPO)): no binding; binding result (Myeloperoxidase (MPO)): no binding; binding result [3]: no binding; binding result [4]: binds
ATGCCATCCTACCAACCAGGGGGACAGTGCAAAGGGAGCTCTGAACTCG (ssDNA) [EAP1-05T3] |  | Kd [5]: 4.8 nM
B7 | binds | 
B8 | binds | 
B9 | binds | 
B10 |  | Kd [6]: 36.6 nM; Kd [7]: 9.2 nM; Kd ([5]; 3' stem loop): 4.3 nM
B11 | binds | 
